The text below walks through data of publication PMC2688778 (Structure (London, England : 1993), 2009).

What all share (experiment): fluorescence anisotropy
A general note: Polarisation of emitted light reports the rotation of a fluorescent probe.

The target in one data set is T1, RecE564 F661A (Escherichia coli K12, UniProt P15032 564-866, F661A).
T1 sequence: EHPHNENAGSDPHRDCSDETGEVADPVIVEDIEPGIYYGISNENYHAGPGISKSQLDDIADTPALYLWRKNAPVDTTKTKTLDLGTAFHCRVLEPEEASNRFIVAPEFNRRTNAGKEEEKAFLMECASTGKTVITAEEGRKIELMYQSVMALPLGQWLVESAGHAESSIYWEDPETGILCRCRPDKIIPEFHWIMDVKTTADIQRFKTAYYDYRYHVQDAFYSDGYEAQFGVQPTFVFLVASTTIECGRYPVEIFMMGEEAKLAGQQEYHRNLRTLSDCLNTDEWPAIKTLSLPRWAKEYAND

A further data set addresses T2, RecE564 Q781A (Escherichia coli K12, UniProt P15032 564-866, Q781A).
T2 sequence: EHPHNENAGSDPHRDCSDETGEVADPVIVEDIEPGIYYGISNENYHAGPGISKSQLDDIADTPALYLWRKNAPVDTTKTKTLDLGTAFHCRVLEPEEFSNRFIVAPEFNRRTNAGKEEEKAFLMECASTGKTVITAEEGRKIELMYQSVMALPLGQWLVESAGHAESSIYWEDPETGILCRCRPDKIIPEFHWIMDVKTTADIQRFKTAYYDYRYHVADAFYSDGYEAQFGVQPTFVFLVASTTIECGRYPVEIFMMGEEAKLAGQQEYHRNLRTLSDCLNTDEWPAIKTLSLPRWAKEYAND

In another data set the target is T3, RecE564 R746A (Escherichia coli K12, UniProt P15032 564-866, R746A).
T3 sequence: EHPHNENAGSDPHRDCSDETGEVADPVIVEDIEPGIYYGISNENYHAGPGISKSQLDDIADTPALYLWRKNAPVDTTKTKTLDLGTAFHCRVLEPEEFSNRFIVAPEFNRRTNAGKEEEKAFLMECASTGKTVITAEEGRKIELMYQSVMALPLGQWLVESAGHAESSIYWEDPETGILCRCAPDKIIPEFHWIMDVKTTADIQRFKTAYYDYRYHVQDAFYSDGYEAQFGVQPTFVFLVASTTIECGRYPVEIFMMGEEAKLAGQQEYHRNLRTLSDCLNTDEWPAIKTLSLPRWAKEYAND

The target of the next data set is T4, RecE564 E729A (Escherichia coli K12, UniProt P15032 564-866, E729A).
T4 sequence: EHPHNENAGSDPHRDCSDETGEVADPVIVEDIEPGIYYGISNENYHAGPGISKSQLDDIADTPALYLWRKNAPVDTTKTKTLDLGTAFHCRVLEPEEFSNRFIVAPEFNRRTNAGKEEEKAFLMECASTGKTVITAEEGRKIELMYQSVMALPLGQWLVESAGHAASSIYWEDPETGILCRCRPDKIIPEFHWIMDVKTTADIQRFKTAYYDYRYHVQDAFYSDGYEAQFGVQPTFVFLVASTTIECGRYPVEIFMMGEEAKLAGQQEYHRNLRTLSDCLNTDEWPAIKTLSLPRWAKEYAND

The target of another data set is T5, RecE564 R768A (Escherichia coli K12, UniProt P15032 564-866, R768A).
T5 sequence: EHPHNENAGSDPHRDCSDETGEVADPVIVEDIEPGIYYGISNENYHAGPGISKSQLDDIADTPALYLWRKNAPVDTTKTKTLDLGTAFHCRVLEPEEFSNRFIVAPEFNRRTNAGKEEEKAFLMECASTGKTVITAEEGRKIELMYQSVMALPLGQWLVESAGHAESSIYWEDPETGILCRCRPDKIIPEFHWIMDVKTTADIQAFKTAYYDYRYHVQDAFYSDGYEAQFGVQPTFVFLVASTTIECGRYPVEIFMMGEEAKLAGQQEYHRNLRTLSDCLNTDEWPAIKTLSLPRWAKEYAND

A further data set concerns the target T6, RecE564 K643A (Escherichia coli K12, UniProt P15032 564-866, K643A).
T6 sequence: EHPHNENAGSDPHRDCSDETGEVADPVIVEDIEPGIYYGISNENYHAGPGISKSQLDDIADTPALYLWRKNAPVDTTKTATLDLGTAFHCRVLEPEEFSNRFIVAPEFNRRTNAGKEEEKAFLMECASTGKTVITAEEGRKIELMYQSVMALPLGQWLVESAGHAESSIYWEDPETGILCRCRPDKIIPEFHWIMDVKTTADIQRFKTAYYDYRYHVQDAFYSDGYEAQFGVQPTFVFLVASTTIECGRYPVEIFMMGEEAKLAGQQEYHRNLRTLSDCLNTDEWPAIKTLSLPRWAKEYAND

B1: F25 (dsDNA)
DNA 1: TAGAGCTTAATTGCTGAATCTGGTG
DNA 2: CACCAGATTCAGCAATTAAGCTCTA
Take B1: the Kd (in general, the constant that tells how readily two partners part at equilibrium) in the data set with RecE564 F661A came to 118 ± 8 nM; with RecE564 Q781A it was 70 ± 20 nM; with RecE564 R746A it was 90 ± 10 nM; with RecE564 E729A it was 57 ± 3 nM; with RecE564 R768A, 310 ± 30 nM; with RecE564 K643A, 210 ± 6 nM.
